Assay results: paper PMC11806767, “The tryptophan-aspartate (WD) repeat domain of bovine Coronin-1A promotes mycobacterial survival by inhibiting calcium signaling-mediated phagosome-lysosome fusion” (Veterinary Research, 2025)

Biological target: the molecule itself
Assay: native gel or EMSA

B1: bovine Coronin-1A (p3×Flag-bCoronin-1A) (natural protein)
chain: MSRQVVRSSKFRHVFGQPAKADQCYEDVRVSQNTWDSGFCAVNPKFVALICEASGGGAFLVLPLGKTGRVDKNVPMVCGHTAPVLDIAWCPHNDNVIASGSEDCSVMVWEIPDGGLTLPLREPVVTLEGHTKRVGIVAWHPTAQNVLLSAGCDNVILVWDVGTGVAVLTLGSDVHPDTIYSVDWSRDGALICTSCRDKRVRIIEPRKGTIVAEKDRPHEGTRPVRAVFVSDGKILTTGFSRMSERQVALWDTKHLEEPLSLQELDTSSGVLLPFFDPDTNIVYLCGKGDSSIRYFEITSEAPFLHYLSMFSSKESQRGMGYMPKRGLEVNKCEIARFYKLHERKCEPIAMTVPRKSDLFQEDLYPPTAGPDAALTAEEWLGGRDAGPLLISLKDGYVPPKSRELRVNRGLDTGRKRTTPEASGAPSSDAISRLEEEMRKLQATVQELQKRLDRLEETVQAK
- stoichiometry N: 3
